In publication PMC9844003 (2023):

What was measured:
[1] = biological target: T1, cell-surface CD47 on Raji, Jurkat and MDA-231 tumor cells (human (endogenous in Raji, Jurkat, …, UniProt Q08722 19-323)); test: FACS; Jurkat, pH 6.8
[2] = biological target: T2, extracellular domain of CD47 fused to a His(×6)-Avi-tag (human); test: ELISA; pH 7.0
[3] = biological target: T2, extracellular domain of CD47 fused to a …; test: ELISA; pH 6.2
[4] = biological target: T1, cell-surface CD47 on Raji, Jurkat and …; test: FACS; MDA-231, pH 6.8
[5] = biological target: T3, full-length human CD47 stably expressed on CHO cells (CHO-hCD47) (human, UniProt Q08722 19-323); test: FACS; pH 6.8
T3 sequence (Q08722 19-323): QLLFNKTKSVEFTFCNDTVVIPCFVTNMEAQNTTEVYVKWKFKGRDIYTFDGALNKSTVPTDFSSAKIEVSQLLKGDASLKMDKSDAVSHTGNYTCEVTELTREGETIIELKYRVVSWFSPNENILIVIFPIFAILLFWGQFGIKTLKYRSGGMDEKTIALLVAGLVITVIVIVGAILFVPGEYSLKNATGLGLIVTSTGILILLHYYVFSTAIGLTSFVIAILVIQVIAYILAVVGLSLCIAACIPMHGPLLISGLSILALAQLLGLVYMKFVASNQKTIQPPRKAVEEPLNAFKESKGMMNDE

[6] = biological target: T2, extracellular domain of CD47 fused to a …; test: ELISA; pH 6.8
[7] = biological target: T1, cell-surface CD47 on Raji, Jurkat and …; test: FACS; Raji, pH 6.8
[8] = biological target: T1, cell-surface CD47 on Raji, Jurkat and …; test: FACS; Jurkat, pH 6.8, competition with bio-SIRPα-Fc
[9] = biological target: T3, full-length human CD47 stably expressed …; test: FACS; pH 7.4
[10] = biological target: T1, cell-surface CD47 on Raji, Jurkat and …; test: FACS; Raji, pH 7.4, competition with bio-SIRPα-Fc
[11] = biological target: T2, extracellular domain of CD47 fused to a …; test: ELISA; pH 7.2
[12] = biological target: T2, extracellular domain of CD47 fused to a …; test: ELISA; pH 6.6
[13] = biological target: T3, full-length human CD47 stably expressed …; test: FACS; pH 6.8, competition with bio-SIRPα-Fc
[14] = biological target: T1, cell-surface CD47 on Raji, Jurkat and …; test: FACS; MDA-231, pH 7.4, competition with bio-SIRPα-Fc
[15] = biological target: T2, extracellular domain of CD47 fused to a …; test: ELISA; pH 7.6
[16] = biological target: T2, extracellular domain of CD47 fused to a …; test: ELISA; pH 6.4
[17] = biological target: T2, extracellular domain of CD47 fused to a …; test: SPR; pH 7.4
[18] = biological target: T1, cell-surface CD47 on Raji, Jurkat and …; test: FACS; Jurkat, pH 7.4, competition with bio-SIRPα-Fc
[19] = biological target: T2, extracellular domain of CD47 fused to a …; test: ELISA; pH 7.4
[20] = biological target: T1, cell-surface CD47 on Raji, Jurkat and …; test: FACS; Raji, pH 6.8, competition with bio-SIRPα-Fc
[21] = biological target: T1, cell-surface CD47 on Raji, Jurkat and …; test: FACS; Jurkat, pH 7.4
[22] = biological target: T1, cell-surface CD47 on Raji, Jurkat and …; test: FACS; MDA-231, pH 6.8, competition with bio-SIRPα-Fc
[23] = biological target: T1, cell-surface CD47 on Raji, Jurkat and …; test: FACS; Raji, pH 7.4
[24] = biological target: T3, full-length human CD47 stably expressed …; test: FACS; pH 7.4, competition with bio-SIRPα-Fc
[25] = biological target: T2, extracellular domain of CD47 fused to a …; test: SPR; pH 6.8
[26] = biological target: T1, cell-surface CD47 on Raji, Jurkat and …; test: FACS; MDA-231, pH 7.4

T2 sequence (chain, as listed by the source): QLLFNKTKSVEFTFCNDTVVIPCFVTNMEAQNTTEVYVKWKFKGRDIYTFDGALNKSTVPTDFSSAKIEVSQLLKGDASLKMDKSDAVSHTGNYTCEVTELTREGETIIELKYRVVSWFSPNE
T1 sequence (Q08722 19-323): as the sequence (Q08722 19-323) above

EC50 [1]	EC50 [2]	EC50 [4]	EC50 [5]	EC50 [7]	IC50 [8]	EC50 [9]	EC50 [11]	IC50 [13]	IC50 [14]	Kd [17]	EC50 [19]	IC50 [20]	EC50 [21]	IC50 [22]	EC50 [23]	IC50 [24]	EC50 [26]	Binder	further results
1.5 nM	0.04 nM	1.2 nM	4.8 nM	0.7 nM	4.2 nM	4.1 nM	0.04 nM	4.1 nM	9.3 nM	6.9 nM	0.04 nM	1.2 nM	2 nM	1.7 nM	4 nM	5.9 nM	3.3 nM	BC31M5 (hIgG1 form) (antibody, V domains shown) VH: QVQLVQSGAEVKKPGASVKVSCKASGYTFTSYGISWVRQAPGQGLEWMGWISAYNGNTNYAQKLQGRVTMTTDTSTSTAYMELRSLRSDDTAVYYCARGTVYFDYWGQGTLVTVSS VL: EIVLTQSPATLSLSPGERATLSCRASQSLSRNHLAWYQQKPGQPPRLLIHWASTRESGVPDRFSGSGSGTDFTLTISSLQAEDVAVYYCQQHTQNTWTFGQGTKVEIK	EC50 [3]: 0.06 nM; EC50 [6]: 0.04 nM; IC50 [10]: 6.7 nM; EC50 [12]: 0.05 nM; EC50 [15]: 0.06 nM; EC50 [16]: 0.05 nM; IC50 [18]: 17.2 nM; Kd [25]: 3.6 nM
1.54 nM	0.04 nM	8.5 nM	4.8 nM	6.8 nM	35 nM	~21.4 nM	0.11 nM	5.4 nM	~507 nM	457 nM	0.51 nM	19.9 nM	~131 nM	22.7 nM	~92 nM	~30.4 nM	~231 nM	BC31M4 (hIgG1 form) (antibody, V domains shown) VH: QVQLVQSGAEVKKPGASVKVSCKASGYTFTSYGISWVRQAPGQGLEWMGWISAYNGNTNYAQKLQGRVTMTTDTSTSTAYMELRSLRSDDTAVYYCARGAVYFDYWGQGTLVTVSS VL: EIVLTQSPATLSLSPGERATLSCRASQSLSRNHLAWYQQKPGQPPRLLIHWASTRESGVPDRFSGSGSGTDFTLTISSLQAEDVAVYYCQQHTQNTWTFGQGTKVEIK	–
–	–	–	–	–	–	–	–	–	–	1170 nM	–	–	–	–	–	–	–	BC27 (hIgG1 form) (antibody, V domains shown) VH: QVQLVQSGAEVKKPGASVKVSCKASGYTFTSYGISWVRQAPGQGLEWMGWISAYNGNTNYAQKLQGRVTMTTDTSTSTAYMELRSLRSDDTAVYYCARGKVYFDYWGQGTLVTVSS VL: EIVLTQSPATLSLSPGERATLSCRASQSLSRNHLAWYQQKPGQPPRLLIHWASTRESGVPDRFSGSGSGTDFTLTISSLQAEDVAVYYCQQYYTASWTFGQGTKVEIK	–
